Where two headings read alike, the source gives them in different places. Starred links: 1 amine or outer side, 2 acyl side, 3 side chain; linkers in the order of their positions; H or OH if unused. Positions of bridges follow the written chain, without caps; N, C: chain ends. Non-standard residues stand in square brackets, D forms with d. Primed or numbered codes have the meaning given here. No end group written: not given here. *: point of attachment. Tyr(OMe)″ = O-methyl-tyrosine (Y-OMe, TyrOMe, O-Me-Tyr), COc1ccc(C[C@H](N[*:1])C(=O)[*:2])cc1; Tyr(Me) = O-methyl-tyrosine (Y-OMe, O-Me-Tyr), COc1ccc(C[C@H](N[*:1])C(=O)[*:2])cc1; Tyr(nBu) = O-n-butyl-tyrosine, CCCCOc1ccc(C[C@H](N[*:1])C(=O)[*:2])cc1; Cys(β,β-pentamethylene) = O=C([C@@H](N[*:1])C1(S[*:3])CCCCC1)[*:2]; Y‑OMe = O-methyl-tyrosine, COc1ccc(C[C@H](N[*:1])C(=O)[*:2])cc1; Cyclohexylacetyl(1-SH) = O=C(CC1(S)CCCCC1)*; Phe(4-I) = N[C@@H](Cc1ccc(I)cc1)C(=O)O; hPhe = N[C@@H](CCc1ccccc1)C(=O)O; dPen = CC(C)(S)[C@@H](N)C(=O)O; Pen = CC(C)(S)[C@H](N)C(=O)O; code O = not defined here; Tmc = not defined here
Experiments:
Test in all cases: ELISA
[1] = biological target: T1, Platelet glycoprotein IIb/IIIa (human, UniProt P08514 32-1039; P05106 27-788)
[2] = biological target: T1, Platelet glycoprotein IIb/IIIa; remark: listed apart in the source
αvβ5 [3] = biological target: αvβ5
αvβ5 [4] = biological target: αvβ5; remark: listed apart in the source
Fibronectin receptor [5] = biological target: T2, Fibronectin receptor (human, UniProt P08648 42-1049; P05556 21-798)
Fibronectin receptor [6] = biological target: T2, Fibronectin receptor; remark: listed apart in the source
Fibronectin receptor [7] = biological target: T2, Fibronectin receptor; remark: listed apart in the source
αvβ5 [8] = biological target: αvβ5; remark: listed apart in the source
αvβ5 [9] = biological target: αvβ5; remark: listed apart in the source
αvβ5 [10] = biological target: αvβ5; remark: listed apart in the source
[11] = biological target: T1, Platelet glycoprotein IIb/IIIa; remark: listed apart in the source

T2 sequence (P08648 42-1049, chain 1 of 2): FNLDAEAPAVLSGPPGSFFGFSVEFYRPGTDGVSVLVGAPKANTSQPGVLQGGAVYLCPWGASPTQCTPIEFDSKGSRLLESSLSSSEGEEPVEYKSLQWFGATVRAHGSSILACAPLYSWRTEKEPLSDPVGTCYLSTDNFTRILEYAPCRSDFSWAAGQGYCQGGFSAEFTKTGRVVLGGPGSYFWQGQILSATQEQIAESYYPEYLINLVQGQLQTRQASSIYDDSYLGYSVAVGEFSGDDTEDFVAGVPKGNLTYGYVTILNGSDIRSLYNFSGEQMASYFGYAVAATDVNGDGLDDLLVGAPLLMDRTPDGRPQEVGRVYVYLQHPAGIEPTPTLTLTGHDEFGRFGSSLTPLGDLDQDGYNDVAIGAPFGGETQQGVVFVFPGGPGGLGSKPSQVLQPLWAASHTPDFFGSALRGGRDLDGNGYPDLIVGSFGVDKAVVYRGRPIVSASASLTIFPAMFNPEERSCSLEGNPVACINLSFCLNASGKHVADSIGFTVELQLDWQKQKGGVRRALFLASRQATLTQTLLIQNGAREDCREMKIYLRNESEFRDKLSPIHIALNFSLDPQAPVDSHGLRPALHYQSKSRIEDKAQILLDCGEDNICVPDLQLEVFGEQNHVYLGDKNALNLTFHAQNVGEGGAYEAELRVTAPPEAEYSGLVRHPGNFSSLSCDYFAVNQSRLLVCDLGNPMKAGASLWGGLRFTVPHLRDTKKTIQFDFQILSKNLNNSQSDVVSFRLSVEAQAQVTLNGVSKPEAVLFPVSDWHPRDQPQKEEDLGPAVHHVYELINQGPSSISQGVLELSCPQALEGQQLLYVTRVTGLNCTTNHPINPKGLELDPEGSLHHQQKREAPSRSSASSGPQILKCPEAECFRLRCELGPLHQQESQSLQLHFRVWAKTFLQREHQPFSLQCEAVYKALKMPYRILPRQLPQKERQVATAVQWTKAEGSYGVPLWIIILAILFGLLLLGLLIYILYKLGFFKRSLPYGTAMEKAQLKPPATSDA
T2 sequence (P05556 21-798, chain 2 of 2): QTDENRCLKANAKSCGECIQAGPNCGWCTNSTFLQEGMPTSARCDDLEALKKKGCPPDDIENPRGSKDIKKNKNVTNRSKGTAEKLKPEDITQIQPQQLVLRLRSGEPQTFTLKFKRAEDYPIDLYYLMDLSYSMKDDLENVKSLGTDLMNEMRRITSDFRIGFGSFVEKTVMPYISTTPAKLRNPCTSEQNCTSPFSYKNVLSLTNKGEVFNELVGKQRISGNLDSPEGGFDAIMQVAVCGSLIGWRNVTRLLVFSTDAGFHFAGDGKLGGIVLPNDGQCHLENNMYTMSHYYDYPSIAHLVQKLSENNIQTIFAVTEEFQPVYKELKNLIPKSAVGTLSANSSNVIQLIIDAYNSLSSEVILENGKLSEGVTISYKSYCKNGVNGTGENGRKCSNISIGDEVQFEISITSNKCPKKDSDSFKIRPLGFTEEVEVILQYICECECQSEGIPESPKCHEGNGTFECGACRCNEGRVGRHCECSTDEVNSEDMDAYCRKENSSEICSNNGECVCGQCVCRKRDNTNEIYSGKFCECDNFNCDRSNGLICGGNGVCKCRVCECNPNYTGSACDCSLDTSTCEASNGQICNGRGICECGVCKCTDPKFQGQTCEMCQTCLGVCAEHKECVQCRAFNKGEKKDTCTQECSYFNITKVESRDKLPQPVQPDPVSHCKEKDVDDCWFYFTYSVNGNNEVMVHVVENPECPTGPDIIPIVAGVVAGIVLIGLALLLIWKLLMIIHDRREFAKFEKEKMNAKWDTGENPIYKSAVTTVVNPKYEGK

## [Cyclohexylacetyl(1-SH)]GHRGDLRCA (disulfide 1-9 (inferred)) [(Pmp)GHRGDLRCA]
[1]
  IC50: 0.02 µM

B1: R(Tmc)GHRGDLRCR (peptide)
peptide: R[Tmc]GHRGDLRCR
modifications: disulfide (positions not given here); reading uncertain; also: Tmc2 as D,L mixture of diastereomers, printed as R(Tmc)GHRGDLRCR
[1]
  IC50: 0.03 µM

## R[Cys(β,β-pentamethylene)]GHRGD[Tyr(nBu)]RCR (disulfide 2-10; also: Pmc from Boc-D/L-Pmc, isomer not given here) [R(Pmc)GHRGD(O-n-butyl-Tyr)RCR]
[2]
  IC50: 0.03 µM

## G[Pen]GHRGDLRCA (disulfide 2-10) [G(Pen)GHRGDLRCA]
αvβ5 [3]
  IC50: 8.26 µM

## R[dPen]GHRGDLRCR (disulfide 2-10) [R(D-Pen)GHRGDLRCR]
αvβ5 [3]
  IC50: 10 µM

## Ac-CNPRGD[Tyr(OMe)″]EC-NH2 (disulfide 1-9) [Ac-CNPRGD(Y-OMe)EC-NH2]
αvβ5 [4]
  IC50: 9.47 µM

## R[Cys(β,β-pentamethylene)]GHRGD[Tyr(Me)]RCR (disulfide 2-10; also: Pmc2 made from D,L-Pmc, configuration not given here) [R(Pmc)GHRGD(O-Me-Tyr)RCR]
Fibronectin receptor [5]
  IC50: 0.98 µM
Fibronectin receptor [6]
  IC50: 0.98 µM
Fibronectin receptor [7]
  IC50: 0.98 µM

## R[Cys(β,β-pentamethylene)]GHRGD[Tyr(Me)]RCR (disulfide 2-10; also: Pmc2 made from D,L-Pmc, configuration not given here) [R(Pmc)GHRGD(Y-OMe)RCR]
αvβ5 [8]
  IC50: 1.05 µM
αvβ5 [9]
  IC50: 1.05 µM
αvβ5 [10]
  IC50: 1.05 µM

## R[Cys(β,β-pentamethylene)]GHRGD[hPhe]RCR (disulfide 2-10; also: Pmc2 from Boc-D/L-Pmc, configuration not given here) [R(Pmc)GHRGD(Hpa)RCR]
αvβ5 [8]
  IC50: 4.25 µM

## R[Pen]GHRGDLRCR (disulfide 2-10) [R(Pen)GHRGDLRCR]
αvβ5 [3]
  IC50: 4.93 µM
[1]
  IC50: 0.04 µM

## Ac-CNPRGD[Tyr(OMe)″]KC-NH2 (disulfide 1-9) [Ac-CNPRGD(Y-OMe)KC-NH2]
αvβ5 [4]
  IC50: 5.82 µM

## R[Cys(β,β-pentamethylene)]GHRGDLRCR (disulfide 2-10 (inferred); also: D,L-Pmc mixture at 2) [R(Pmc)GHRGDLRCR]
αvβ5 [3]
  IC50: 1.58 µM
αvβ5 [8]
  IC50: 1.58 µM

## G[dPen]GHRGDLRCA (disulfide 2-10) [G(D-Pen)GHRGDLRCA]
αvβ5 [3]
  IC50: 5.27 µM

## R[Cys(β,β-pentamethylene)]GHRGD[Phe(4-I)]RCR (disulfide 2-10; also: Pmc2 from Boc-D/L-Pmc) [R(Pmc)GHRGD(p-I-F)RCR]
Fibronectin receptor [5]
  IC50: 4.19 µM
[2]
  IC50: 0.01 µM
αvβ5 [8]
  IC50: 4.03 µM

## Ac-CNPRGD[Y‑OMe][code O]C-NH2 (disulfide 1-9 (inferred); reading uncertain) [Ac-CNPRGD(Y-OMe)OC-NH2]
[11]
  IC50: 0.05 µM
αvβ5 [4]
  IC50: 7.7 µM

## CNPRGDXXC (N-terminal acetyl; O-Me-Tyr at 7; Cit at 8; C-terminal amide) [Ac-CNPRGD(Y-OMe)(Cit)C-NH2]
αvβ5 [4]
  IC50: 3.46 µM

## R[Cys(β,β-pentamethylene)]GHRGDFRCR (disulfide 2-10) [R(Pmc)GHRGDFRCR]
[2]
  IC50: 0.04 µM
